Test results as given in the DeepSol protein solubility set.

assay: soluble on expression in E. coli; label from the status in PepcDB or PDB records

Row | Sequence | soluble on expression in E. coli
1 | MGSDKIHHHHHHAQNGNVLGQVIRLPKSKGNIYQLLGLVTERSGYLFIYDSKIIDNEQTTSIKGGDYTIQEAIYAITGNKNLAIRAIENHLLLYLPESPSAPKSASVTPDSIQTYFSIEGSLQDQYTHEPIAFGSVGIGEAAIGTITNQNGEFRLKLPDSLRLSKVRFSHIGYLPQEIDSRELIDKHTVLSLEPKVISIQEVIVRLTNPKRLLQEMLDKRRSNYSQHPIYLTTFYREGVERKKGLVGLTEAVFKVYKASYHSNALADQVKLLKMRRISNEQEKDTLITKMKSGIYSCLVLDLMKQLPEFLDPSPDSPYTYAHTDITVVDDRLANVISFEQRKSINEPLYRGQIYIDMENNALLRVDFEVNPQYIEQAAGMFVERKSRNLRITPQKVAYTVSYKQWNGTYYINHIRGDLHFKIKKRRQLFNTNILHTWFEMVTCKIDTANVNRFSRIESLPTRTVFSDTHFNYDEGFWGDFNVILPEDKLNEAISRITSKIEETNY | not soluble
2 | MMYQDVVRSRRSVRDFMPDVEIPKEELMAIIEEAMFAPNSTNLNSWRFLIVTEKEQKEALYEVSMQQPAVKGAAAVIILLGDLTAYTVANADEISAKAVAQGTMTEEIRQGINENVSWYYDVSEEQKREWLMLDQGLVAMQLMLSAKDRGYDTVAMSGFETEAVRKLFNIEDHLVNGLIIPIGKAQTPGFETVRRDVSEVVTWLD | not soluble
3 | AIAELFTLGACRQVGKSCFVLKTSEGLVMLDCGLHPSYQDDRRYPNFSLAFSYGPLKAVFITHCHADHVGALPILTERWGYDGPIYMSEPTRKLSYYILEECVGSWGGDDEWTDSSRSEWSYTQREVESCLTKVTIMEPGQSISVGENVQVHSWMAGHVLGAYMFSIVVDNHRILYTGDFTSCPTFHLPPARVDDIPYPPDVILSEATYATSFKDGRLNNQVEFIQNVLDCLLDGGKVLVPVFAIGRAQELLLLLGK | soluble
4 | MAHHHHHHMKNKSIRKERQSGETLEDNIEEINYCIKVIPKDKINSKGNGAIRLSNLDMNRSNNGNYYNQNNNVENINDFETECRNYIEDILKIDEYVKLPNSINNEQDKIKWKKAHSLRNRMKEYDLITRTRLYQSNSVNNKAKLNRERYIILNKIPRYREAFPSIMNNTSTDKIKEDIIRTYLKTHAAYFLSQNKKNSNLSLKNMGRNTYFSFRKKSDDRNNSLINYNKHMNDKSKSVEHNNCPNLKKKDRSYNLWKRITVDDIKNTHFTPTEKQYLKDYNIFLNDAFNNFKINQNNNKRQLNVKNQKNIPNYDMINNKIYGHIKNNANNNLYINNQKREDAYIINPSQNNIITSPNEEQYPYFNNYSYSDKNKNLSTYNTEGKRNIYTNDVKSNTNYQHSNNSNYSDESLNMFSNSSTSIYEKYNLKDKNFVLKRDRYALLGKIKNNKEIEVKLVLNKV | not soluble
5 | MAHHHHHHMSGRCFSKSLESDVDSAAAAESSLSATEVSTDGYRTGKQPRHVAFLLEKDLKETDTEEVPRAAFAGRRGGAGARPTEEQWSWSGRAEADALRQRALQCGEDFVRVASGLGYEVVAHTPTAFLKRGMTEKTAALFGVAQPEKQGGTGLAVARSATARASTGAVLLSSPSAAETTVTLAAPFSSGGSSVFPRKGELDSCSSRSSSPGTEDQVGMVPVLSPLLQGSEPGQRRLSTDASLRALEVQTPRTTGAHAGVYRYPATIASLHPLQDSTPNSVADGNGVHTSPHRSSRTGFGAEHHANDGANPPGPAIANSTRAVHWTPTTRHPSPSRGSPASHRALTPRTVFPTGNHPVTASLMVPGQQSDAFAVRLSIMDVTSSRTNSNTNTSMSTEHLNGHEFVNVGGSQNTNNRFFTSSTDALNTPAVRMTDDEDWLRATGRLIQ | not soluble
6 | MSLSSERVLSNARVVSAERVFVGSVLLRDGLIAAVDEGRSHLAGAEDLGGDYLLPGLVELHTDNLEKHMTPRPGVDWPSASAVLAHDAQIVSAGITTVFDALSIGDVNPKGKRMQQLPKMLEAIGEAAASGDARADHRLHLRCEVSHPQTLEVFRELVEHPLVQLVSVMDHAPGQRQFARLEKYREYYQGKYHLSDAEMDAFIVEQVANSERYSDAARAAIVDVCQGRGLSVASHDDATLAHVRESAGYGMAIAEFPTTVEAARASHEHGLQVLMGAPNVVRGGSHSGNVAAAQLAGIGVLDILSSDYYPASLLHAALLLAGEHSEYDAIRYDLPRAVAMVSRTPALAAGLTDRGEIRVGLRADLLQARALGNNQPVVRQVWRGGQRVFEGHHHHHH | soluble
7 | MIKLTEYIYLASEQPLSTGSITLNGLSKPTGNLLNKAFFFFINDFEGDPPGKFSYSNYLKTLNYQVCSMCSLPSDNQNIETPSAIALLGYIRNHFKNTCTTKLYILSALNGFENKPISKTVTRKLSDLSYKDLYYQEMKLLKIIR | not soluble
8 | MESNFIDWHPADIIAGLRKKGTSMAAESRRNGLSSSTLANALSRPWPKGEMIIAKALGTDPWVIWPSRYHDPQTHEFIDRTQLMRSYTKPKK | soluble
